Drawing on paper PMC5359885, this text covers Kd for two substances.

As usually defined, the pKd is the Kd on a negative log10 scale, so that one unit is a factor of ten.

Experiment [1] deals with purified human spectrin (Sigma) (human) (UniProt P02549). As to the kind of experiment: ELISA; spectrin coated on the plate; serially diluted His-tagged protein in PBS, overnight at 4 °C; detected with anti-His tag antibody; Scatchard analysis. For orientation: ELISA stands for enzyme-linked immunosorbent assay.
Sequence of UniProt P02549 (P02549 whole entry, chain 1 of 2): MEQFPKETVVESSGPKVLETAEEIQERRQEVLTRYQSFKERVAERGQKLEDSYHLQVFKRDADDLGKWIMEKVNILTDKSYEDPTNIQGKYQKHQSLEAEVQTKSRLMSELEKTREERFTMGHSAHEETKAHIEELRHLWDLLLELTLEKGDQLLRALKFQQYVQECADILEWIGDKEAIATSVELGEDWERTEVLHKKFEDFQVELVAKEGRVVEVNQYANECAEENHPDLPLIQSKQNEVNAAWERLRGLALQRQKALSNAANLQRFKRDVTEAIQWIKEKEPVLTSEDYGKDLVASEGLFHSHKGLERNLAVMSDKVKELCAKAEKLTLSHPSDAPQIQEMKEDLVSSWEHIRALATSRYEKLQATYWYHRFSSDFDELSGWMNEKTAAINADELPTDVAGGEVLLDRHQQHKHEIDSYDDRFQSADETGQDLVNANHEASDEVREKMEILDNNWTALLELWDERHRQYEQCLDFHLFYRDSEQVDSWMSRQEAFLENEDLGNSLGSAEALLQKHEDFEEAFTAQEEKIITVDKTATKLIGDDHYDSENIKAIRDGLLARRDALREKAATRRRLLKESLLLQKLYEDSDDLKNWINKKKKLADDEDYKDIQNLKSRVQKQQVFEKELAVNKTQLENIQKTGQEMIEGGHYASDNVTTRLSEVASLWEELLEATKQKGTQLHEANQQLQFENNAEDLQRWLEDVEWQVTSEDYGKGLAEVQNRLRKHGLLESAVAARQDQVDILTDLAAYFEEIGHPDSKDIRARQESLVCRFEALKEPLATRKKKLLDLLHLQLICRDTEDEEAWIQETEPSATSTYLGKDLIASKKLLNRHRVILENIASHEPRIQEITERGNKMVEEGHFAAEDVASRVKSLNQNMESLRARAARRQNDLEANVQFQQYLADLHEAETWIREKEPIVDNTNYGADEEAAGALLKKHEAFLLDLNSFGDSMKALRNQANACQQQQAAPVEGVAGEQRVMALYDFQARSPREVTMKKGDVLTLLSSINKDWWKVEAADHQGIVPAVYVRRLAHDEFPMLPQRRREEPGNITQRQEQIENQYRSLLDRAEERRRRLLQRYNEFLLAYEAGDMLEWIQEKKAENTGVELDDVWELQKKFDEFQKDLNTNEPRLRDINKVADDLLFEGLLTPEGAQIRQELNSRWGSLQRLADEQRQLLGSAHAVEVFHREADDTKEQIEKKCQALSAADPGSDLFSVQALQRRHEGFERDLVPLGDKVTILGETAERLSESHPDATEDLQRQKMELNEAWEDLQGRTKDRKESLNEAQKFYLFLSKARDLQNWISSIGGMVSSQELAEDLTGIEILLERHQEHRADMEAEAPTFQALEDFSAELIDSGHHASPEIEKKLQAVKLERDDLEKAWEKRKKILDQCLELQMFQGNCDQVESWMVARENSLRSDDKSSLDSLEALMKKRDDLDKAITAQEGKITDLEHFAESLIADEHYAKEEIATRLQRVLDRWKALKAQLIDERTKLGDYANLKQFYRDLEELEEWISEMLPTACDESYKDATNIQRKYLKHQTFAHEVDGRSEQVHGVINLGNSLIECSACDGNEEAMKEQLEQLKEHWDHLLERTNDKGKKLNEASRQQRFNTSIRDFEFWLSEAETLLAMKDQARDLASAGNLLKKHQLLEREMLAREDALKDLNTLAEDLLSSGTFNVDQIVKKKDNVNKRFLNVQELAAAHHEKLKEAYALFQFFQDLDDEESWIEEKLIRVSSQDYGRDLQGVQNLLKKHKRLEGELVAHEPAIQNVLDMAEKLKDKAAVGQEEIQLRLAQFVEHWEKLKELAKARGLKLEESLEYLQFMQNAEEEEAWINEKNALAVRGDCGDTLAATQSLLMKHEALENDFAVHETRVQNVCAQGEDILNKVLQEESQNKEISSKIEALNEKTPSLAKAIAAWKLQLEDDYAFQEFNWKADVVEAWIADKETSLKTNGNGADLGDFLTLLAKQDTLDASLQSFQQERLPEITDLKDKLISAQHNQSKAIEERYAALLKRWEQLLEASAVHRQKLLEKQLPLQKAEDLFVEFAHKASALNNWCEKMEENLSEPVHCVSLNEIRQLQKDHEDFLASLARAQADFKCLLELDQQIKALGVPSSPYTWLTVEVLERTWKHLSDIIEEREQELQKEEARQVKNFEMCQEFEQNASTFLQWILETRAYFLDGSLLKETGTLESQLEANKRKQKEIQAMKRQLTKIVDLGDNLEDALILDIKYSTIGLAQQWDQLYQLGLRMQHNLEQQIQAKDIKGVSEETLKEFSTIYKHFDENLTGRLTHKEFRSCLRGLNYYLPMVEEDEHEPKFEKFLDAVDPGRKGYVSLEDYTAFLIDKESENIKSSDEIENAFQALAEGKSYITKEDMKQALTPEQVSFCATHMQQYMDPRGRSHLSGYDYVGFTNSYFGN
Sequence of UniProt P02549 (P11277 2-2137, chain 2 of 2, further chain): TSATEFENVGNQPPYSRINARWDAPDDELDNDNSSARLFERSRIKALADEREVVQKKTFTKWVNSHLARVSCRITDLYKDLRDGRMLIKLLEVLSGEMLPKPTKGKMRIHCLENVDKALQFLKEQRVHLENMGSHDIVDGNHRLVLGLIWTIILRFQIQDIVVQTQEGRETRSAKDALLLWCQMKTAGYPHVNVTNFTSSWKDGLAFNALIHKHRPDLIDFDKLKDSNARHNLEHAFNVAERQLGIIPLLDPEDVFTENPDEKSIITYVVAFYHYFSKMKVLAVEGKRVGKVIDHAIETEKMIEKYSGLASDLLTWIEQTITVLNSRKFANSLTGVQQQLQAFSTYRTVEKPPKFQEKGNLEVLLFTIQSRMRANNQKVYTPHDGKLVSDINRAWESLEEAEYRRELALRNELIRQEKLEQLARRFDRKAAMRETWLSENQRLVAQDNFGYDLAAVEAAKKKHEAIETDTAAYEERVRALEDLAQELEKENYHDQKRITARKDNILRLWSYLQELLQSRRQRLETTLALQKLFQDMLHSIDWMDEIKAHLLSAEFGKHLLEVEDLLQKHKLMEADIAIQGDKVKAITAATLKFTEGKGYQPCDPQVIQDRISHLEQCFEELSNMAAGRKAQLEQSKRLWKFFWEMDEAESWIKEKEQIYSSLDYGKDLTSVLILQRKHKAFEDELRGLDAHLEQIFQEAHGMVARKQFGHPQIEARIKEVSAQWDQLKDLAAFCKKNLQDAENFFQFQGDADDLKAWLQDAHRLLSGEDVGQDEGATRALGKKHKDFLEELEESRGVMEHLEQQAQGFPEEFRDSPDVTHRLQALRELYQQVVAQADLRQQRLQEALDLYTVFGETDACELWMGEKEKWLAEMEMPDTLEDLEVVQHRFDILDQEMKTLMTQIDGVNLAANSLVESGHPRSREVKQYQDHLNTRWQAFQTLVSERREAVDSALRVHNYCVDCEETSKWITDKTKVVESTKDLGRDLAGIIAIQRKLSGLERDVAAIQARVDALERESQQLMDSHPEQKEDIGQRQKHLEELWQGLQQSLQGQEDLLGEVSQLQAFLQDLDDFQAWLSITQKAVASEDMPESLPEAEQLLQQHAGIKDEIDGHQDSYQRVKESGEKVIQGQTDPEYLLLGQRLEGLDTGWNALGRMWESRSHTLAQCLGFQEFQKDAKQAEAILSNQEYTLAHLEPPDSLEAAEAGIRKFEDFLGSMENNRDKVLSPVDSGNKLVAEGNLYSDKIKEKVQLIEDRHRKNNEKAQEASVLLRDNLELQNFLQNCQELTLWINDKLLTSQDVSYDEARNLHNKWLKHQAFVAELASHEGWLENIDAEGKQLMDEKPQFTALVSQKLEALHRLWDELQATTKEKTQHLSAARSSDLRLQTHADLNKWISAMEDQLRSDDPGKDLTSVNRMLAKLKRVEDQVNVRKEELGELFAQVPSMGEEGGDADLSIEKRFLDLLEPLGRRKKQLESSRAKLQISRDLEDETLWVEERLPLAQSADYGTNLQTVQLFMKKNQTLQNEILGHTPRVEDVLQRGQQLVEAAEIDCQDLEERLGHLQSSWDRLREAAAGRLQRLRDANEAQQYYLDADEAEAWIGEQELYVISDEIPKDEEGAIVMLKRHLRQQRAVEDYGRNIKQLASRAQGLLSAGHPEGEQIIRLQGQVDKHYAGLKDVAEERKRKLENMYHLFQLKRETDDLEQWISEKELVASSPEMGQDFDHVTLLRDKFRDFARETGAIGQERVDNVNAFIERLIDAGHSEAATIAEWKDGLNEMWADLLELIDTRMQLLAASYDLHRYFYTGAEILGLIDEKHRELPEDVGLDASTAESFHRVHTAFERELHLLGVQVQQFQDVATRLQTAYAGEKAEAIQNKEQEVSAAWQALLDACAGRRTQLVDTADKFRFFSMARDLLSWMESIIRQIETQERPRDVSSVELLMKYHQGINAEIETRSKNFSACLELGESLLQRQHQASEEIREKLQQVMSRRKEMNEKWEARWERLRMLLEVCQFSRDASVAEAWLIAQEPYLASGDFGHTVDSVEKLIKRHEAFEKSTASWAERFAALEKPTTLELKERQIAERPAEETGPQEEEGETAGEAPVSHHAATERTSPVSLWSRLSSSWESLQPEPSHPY
In experiment [2] the target is F-actin (G-actin from Cytoskeleton polymerized to F-actin) (UniProt P68135). Kind of experiment: co-sedimentation; Actin Binding Protein Spin-Down Assay kit; F-actin (7 μM) incubated with His-tagged protein (SURFIN4.2^WRD2-His 12.5 to 0.0 μM; His control 7.0 μM; Pf332^WRD 4.2 μM) at room temperature 30 min; 150,000×g 1.5 h at 24 °C; Western blot of supernatant and pellet, densitometry, one-site specific binding model.

The next experiment has as its target Spectrin (Homo sapiens) (UniProt P02549). The settings on record: cited from earlier work.

pKd: −log10 of the molar value.

With “His-tagged recombinant SURFIN4.2 WRD2 (second tryptophan-rich domain of SURFIN4.2, amino acids 1349-1567), expressed in E. coli (domain or fragment)”, the negative-log Kd (pKd) was 6.29 in experiment [1] and 5.29 in experiment [2].

Consider RESA (from UniProt P13830), for which, in the experiment with Spectrin (Homo sapiens), the pKd was 6.06.
